B1: bsAb19757D (bispecific antibody, V domains shown)
VH 1: EVQLVESGGGLVQPGGSLRLSCVASGFTFNKYDMHWVRQTTGKGLEWVSGIDTDGDTYYPGSVKGRFTISRENAENSLYLQMNGLRVGDTAVYYCARWPWSGFYGAFDIWGQGTMVTVSS
VH 2: EVQLVESGGGVVRPGGSLRLSCTASGFTFDDYGMSWVRQAPGKGLEWVSGINWNGGRTEYADAVKGRFIISRDNAKNSLYLQMNSLRAEDTALYFCARTELRWDYWGQGTLVTVSS
VL: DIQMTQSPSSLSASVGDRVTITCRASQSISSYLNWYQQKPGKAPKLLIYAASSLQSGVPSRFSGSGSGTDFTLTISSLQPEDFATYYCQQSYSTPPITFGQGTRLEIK
notes: common light chain
B2: bsAb19758D (bispecific antibody, V domains shown)
VH 1: B1 VH 1
VH 2: EVQLVESGGGLVQSGGSLRLSCAASGFTFSRYEMNWVRQAPGKGLEWVAYISNTGTTRDYSDSVKGRFTISRDNAKNSLYLQMSSLRVEDTAVYYCVREKFSGTSDWFDPWGQGTLVTVSS
VL: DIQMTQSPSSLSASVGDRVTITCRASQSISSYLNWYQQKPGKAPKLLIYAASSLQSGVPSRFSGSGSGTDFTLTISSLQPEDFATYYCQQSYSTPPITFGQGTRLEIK
notes: common light chain
B3: bsAb19149D (bispecific antibody, V domains shown)
VH 1: QVQLVESGGGVVQPGRSLRLSCTASGFTFSSYAMYWVRQAPGKGLEWVSVIYYDGSYKYYADSVKGRFTISRDNSKNTLYLQMDSLRAEDTAVYYCASYNWNYWYFDFWGRGTLVTVSS
VH 2: QVQLVESGGGVVQPGRSLRLACAASGFTFRSYGMHWVRQAPGKGLEWVAVIWYDGSNKYYTDSVKGRFTISRDNSKNTLYLQMNSLRAEDTAMYYCAIDKWATVTTYLFDYWGQGTLVTVSS
VL: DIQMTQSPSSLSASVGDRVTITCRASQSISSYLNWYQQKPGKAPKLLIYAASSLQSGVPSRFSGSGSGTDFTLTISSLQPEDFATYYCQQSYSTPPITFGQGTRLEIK
notes: common light chain
B4: bsAb19153D (bispecific antibody, V domains shown)
VH 1: B3 VH 1
VH 2: QVQLVQSGAEVMKPGASVKVSCRASGYTFSSYDINWVRQAPGQGLEWMGWISTATGNTNYPQKVQGRVTMTTDTSTNTAYMELRSLRSDDTAVYYCTREGNSKGWLDPWGQGTLVTVSS
VL: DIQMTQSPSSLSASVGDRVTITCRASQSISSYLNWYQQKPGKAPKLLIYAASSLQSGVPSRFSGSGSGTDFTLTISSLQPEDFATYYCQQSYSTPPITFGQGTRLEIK
notes: common light chain
B5: bsAb19156D (bispecific antibody, V domains shown)
VH 1: B3 VH 1
VH 2: QVQLVESGGGLVKPGGSLRLSCAASGFTFSDYYMTWIRQTPGKGLDWVSYISSSGTNKYNADSVKGRFTISRDNAKNSLYLQMNSLRAEDTAVYYCVRDPPWGMDVWGQGTTVTVSS
VL: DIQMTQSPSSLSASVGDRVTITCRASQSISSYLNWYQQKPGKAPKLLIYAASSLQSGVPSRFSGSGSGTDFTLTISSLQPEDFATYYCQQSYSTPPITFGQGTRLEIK
notes: common light chain
B6: bsAb19150D (bispecific antibody, V domains shown)
VH 1: B3 VH 1
VH 2: B2 VH 2
VL: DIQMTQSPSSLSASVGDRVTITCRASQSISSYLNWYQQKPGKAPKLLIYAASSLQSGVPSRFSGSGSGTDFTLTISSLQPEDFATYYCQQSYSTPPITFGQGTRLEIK
notes: common light chain
B7: bsAb19151D (bispecific antibody, V domains shown)
VH 1: B3 VH 1
VH 2: EVQLVESGGGLVQPGGSLRLSCAASGFTFSSYAMNWVRQAPGKGLEWVSAISGSGDSTYYTDSVKGRFTISRDNSKNTLYLQMNTLRAEDTAVYYCAKEEIVMLVGATPGWFDPWGQGTLVTVSS
VL: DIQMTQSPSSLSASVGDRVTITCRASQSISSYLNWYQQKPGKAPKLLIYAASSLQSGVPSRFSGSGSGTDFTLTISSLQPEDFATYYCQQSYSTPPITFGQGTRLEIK
notes: common light chain
B8: bsAb19154D (bispecific antibody, V domains shown)
VH 1: B3 VH 1
VH 2: QVQLQQSGPGQMKSSQTLTLTCAISGDSVSSNSAIWYWIRQSPSRGLEWLGRTKFRSKWYNDFALSMKSRITINPDTSKNQFSLHLNSVTPEDTAVYYCARYKWELYFDYWGQGTLVTVSS
VL: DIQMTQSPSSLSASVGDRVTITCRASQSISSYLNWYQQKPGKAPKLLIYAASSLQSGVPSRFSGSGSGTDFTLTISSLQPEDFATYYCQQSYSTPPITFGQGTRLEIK
notes: common light chain
B9: bsAb19155D (bispecific antibody, V domains shown)
VH 1: B3 VH 1
VH 2: EVQLVESGGGLVQPGGSLRLSCAASGFTFSTYWMNWVRQAPGKGLEWVANIKEDGSEKYYVDSVKGRFTISRDNAKNSLYLQMNSLRAEDTAVYYCAREGFGVVTYIWGQGTMVTVSS
VL: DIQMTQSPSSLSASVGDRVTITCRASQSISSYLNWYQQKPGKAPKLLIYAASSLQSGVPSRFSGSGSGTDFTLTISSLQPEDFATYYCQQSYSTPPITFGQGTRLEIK
notes: common light chain
B10: bsAb19152D (bispecific antibody, V domains shown)
VH 1: B3 VH 1
VH 2: EVQLVQSGAEVKKPGESLKISCKGSGYSFTSYWIDWVRQMPGKGLEWMGIIYPDDSDTRYSPSFQGQVTMSVDKSISTAYLQWSSLKASDTAIYYCARHERGIVEAGTDYYYYYGMDVWGQGTTVTVSS
VL: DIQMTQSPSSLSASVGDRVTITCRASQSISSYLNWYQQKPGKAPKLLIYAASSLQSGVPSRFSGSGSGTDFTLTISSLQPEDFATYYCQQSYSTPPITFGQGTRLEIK
notes: common light chain

What follows are binders tested against T1, human LEPR extracellular domain expressed with a C-terminal myc-myc-hexahistidine tag (human, UniProt P48357 22-839) (assay: SPR Biacore 4000, bsAb captured by anti-human Fc, 25 C).
T1 construct: Monomeric reagent; the whole entry is the construct with its tag; also called hLEPR-MMH; hLEPR.mmh
Description: (§1) Equilibrium dissociation constants (KD values) for LEPR and GP130 binding to purified anti-LEPR/GP130 bispecific antibodies were determined using a real-time surface plasmon resonance biosensor using a Biacore 4000 instrument. All binding studies were performed in 10 mM HEPES, 150 mM NaCl, 3 mM EDTA, and 0.05% v/v Surfactant Tween-20, pH 7.4 (HBS-ET) running buffer at 25° C. and 37° C. The Biacore sensor surface was first derivatized by amine coupling with a monoclonal mouse anti-human Fc antibody (GE, #BR-1008-39) to capture anti-LEPR/GP130 bispecific antibodies. […] Different concentrations of LEPR or GP130 reagents were first prepared in HBS-ET running buffer (100 nM-3.7 nM; 3-fold serial dilution) and were injected over anti-human Fc captured anti-LEPR/GP130 bispecific antibody surface for 4 minutes at a flow rate of 30 μL/minute, while the dissociation of bispecific antibody bound LEPR or GP130 reagent was monitored for 10 minutes in HBS-ET running buffer. Kinetic association (kₐ) and dissociation (kd) rate constants were determined by fitting the real-time binding sensorgrams to a 1:1 binding model with mass transport limitation using Scrubber 2.0c curve-fitting software. Binding dissociation equilibrium constants (KD) and dissociative half-lives (t ½) were calculated from the kinetic rate constants as: […]

| Binder | 100 nM hLEPR-MMH Bound (RU) | Kd | koff | kon | t½ |
| --- | --- | --- | --- | --- | --- |
| B1 | 57 RU | 7.85 nM | 0.000162 s⁻¹ | 20700 M⁻¹ s⁻¹ | 71 min |
| B2 | 54 RU | 10.3 nM | 0.000163 s⁻¹ | 15900 M⁻¹ s⁻¹ | 71 min |
| B3 | 36 RU | 7.16 nM | 0.000194 s⁻¹ | 27100 M⁻¹ s⁻¹ | 60 min |
| B4 | 40 RU | 6.46 nM | 0.000165 s⁻¹ | 25500 M⁻¹ s⁻¹ | 70 min |
| B5 | 39 RU | 7.11 nM | 0.000164 s⁻¹ | 23100 M⁻¹ s⁻¹ | 70 min |
| B6 | 41 RU | 7.35 nM | 0.000176 s⁻¹ | 24000 M⁻¹ s⁻¹ | 66 min |
| B7 | 46 RU | 7.49 nM | 0.000158 s⁻¹ | 21100 M⁻¹ s⁻¹ | 73 min |
| B8 | 40 RU | 7.95 nM | 0.00018 s⁻¹ | 22600 M⁻¹ s⁻¹ | 64 min |
| B9 | 40 RU | 6.36 nM | 0.000153 s⁻¹ | 24000 M⁻¹ s⁻¹ | 76 min |
| B10 | 47 RU | 6.75 nM | 0.000165 s⁻¹ | 24500 M⁻¹ s⁻¹ | 70 min |

The binders below were run against T2, Macaca Fascicularis LEPR extracellular domain expressed with a C-terminal myc-myc-hexahistidine tag (Macaca fascicularis, UniProt Q9MYL0 22-837 (rhesus entry)) in the same assay as above.
T2 construct: Monomeric reagent; the whole entry is the construct with its tag; also called mfLEPR-MMH
Description: as §1

| Binder | 100 nM mfLEPR-MMH Bound (RU) | Kd | koff | kon | t½ |
| --- | --- | --- | --- | --- | --- |
| B1 | 7 RU |  |  |  |  |
| B2 | 9 RU | 583 nM | 0.0225 s⁻¹ | 38600 M⁻¹ s⁻¹ | 0.5 min |
| B3 | 96 RU | 2.65 nM | 0.000111 s⁻¹ | 41900 M⁻¹ s⁻¹ | 104 min |
| B4 | 102 RU | 2.96 nM | 0.000126 s⁻¹ | 42600 M⁻¹ s⁻¹ | 92 min |
| B5 | 97 RU | 3.27 nM | 0.000132 s⁻¹ | 40400 M⁻¹ s⁻¹ | 87 min |
| B6 | 102 RU | 2.79 nM | 0.000117 s⁻¹ | 41800 M⁻¹ s⁻¹ | 99 min |
| B7 | 109 RU | 2.74 nM | 0.000117 s⁻¹ | 42500 M⁻¹ s⁻¹ | 99 min |
| B8 | 102 RU | 2.96 nM | 0.000121 s⁻¹ | 40800 M⁻¹ s⁻¹ | 96 min |
| B9 | 103 RU | 2.9 nM | 0.000122 s⁻¹ | 42000 M⁻¹ s⁻¹ | 95 min |
| B10 | 113 RU | 2.97 nM | 0.000124 s⁻¹ | 41800 M⁻¹ s⁻¹ | 93 min |

What follows are binders tested against T1, human LEPR extracellular domain … (assay: SPR Biacore 4000, bsAb captured by anti-human Fc, 37 C).
Description: as §1

| Binder | 100 nM hLEPR-MMH Bound (RU) | Kd | koff | kon | t½ |
| --- | --- | --- | --- | --- | --- |
| B1 | 81 RU | 19.1 nM | 0.000625 s⁻¹ | 32800 M⁻¹ s⁻¹ | 18 min |
| B2 | 73 RU | 20.6 nM | 0.000663 s⁻¹ | 32300 M⁻¹ s⁻¹ | 17 min |
| B3 | 61 RU | 18.4 nM | 0.000622 s⁻¹ | 33800 M⁻¹ s⁻¹ | 19 min |
| B4 | 65 RU | 19.7 nM | 0.000791 s⁻¹ | 40100 M⁻¹ s⁻¹ | 15 min |
| B5 | 60 RU | 23 nM | 0.000842 s⁻¹ | 36600 M⁻¹ s⁻¹ | 14 min |
| B6 | 63 RU | 19.5 nM | 0.000691 s⁻¹ | 35500 M⁻¹ s⁻¹ | 17 min |
| B7 | 70 RU | 18.3 nM | 0.00076 s⁻¹ | 41400 M⁻¹ s⁻¹ | 15 min |
| B8 | 65 RU | 19.2 nM | 0.000729 s⁻¹ | 37900 M⁻¹ s⁻¹ | 16 min |
| B9 | 63 RU | 20 nM | 0.000792 s⁻¹ | 39700 M⁻¹ s⁻¹ | 15 min |
| B10 | 74 RU | 20.8 nM | 0.000787 s⁻¹ | 37700 M⁻¹ s⁻¹ | 15 min |

The binders below were run against T2, Macaca Fascicularis LEPR extracellular … in the same assay as above.
Description: as §1

| Binder | 100 nM mfLEPR-MMH Bound (RU) | Kd | koff | kon | t½ |
| --- | --- | --- | --- | --- | --- |
| B1 | 7 RU |  |  |  |  |
| B2 | 5 RU |  |  |  |  |
| B3 | 154 RU | 8.09 nM | 0.000506 s⁻¹ | 62500 M⁻¹ s⁻¹ | 23 min |
| B4 | 158 RU | 8.81 nM | 0.00058 s⁻¹ | 65800 M⁻¹ s⁻¹ | 20 min |
| B5 | 148 RU | 5.88 nM | 0.000567 s⁻¹ | 96400 M⁻¹ s⁻¹ | 20 min |
| B6 | 158 RU | 5.25 nM | 0.000519 s⁻¹ | 98900 M⁻¹ s⁻¹ | 22 min |
| B7 | 167 RU | 5.3 nM | 0.000554 s⁻¹ | 105000 M⁻¹ s⁻¹ | 21 min |
| B8 | 159 RU | 5.64 nM | 0.000541 s⁻¹ | 96000 M⁻¹ s⁻¹ | 21 min |
| B9 | 155 RU | 5.49 nM | 0.000565 s⁻¹ | 103000 M⁻¹ s⁻¹ | 20 min |
| B10 | 169 RU | 5.9 nM | 0.000589 s⁻¹ | 99900 M⁻¹ s⁻¹ | 20 min |

— patent US20240158497A1 (published 2024)
